# Results: patent US20220380409A1
# Ends that are not written are not given here. Tz4 = ring closure through triazole, 4-carbon linker to triazole
# Target: full-length Akt2 protein (Homo sapiens (Human)) (UniProt P31751)
# Assay: affinity estimation from immunoassays capturing full-length Akt2 protein (FIG. 6D)
binder,measurement,value
"YYTYT (triazole (positions not given here) via Tz4; also: ring closed via triazole between non-natural alkyne and azide residues flanking the sequence, variable region only, constant region not given here) [Cy(YYTYT (SEQ ID NO:4)-Tz4)]",fold higher affinity than the corresponding linear peptide,30 fold
